Measurements published in patent US20210024596A1.

Columns and labels:
histone H4 (human) = histone H4 (human) (UniProt P62805); assay: SPR kinetic assay, ligand H4 captured on the chip, analyte prothrombin fragment 1 at 1.0-6.0 µM
histone H3 (human) = histone H3 (human) (UniProt P68431); assay: SPR kinetic assay, ligand H3 captured on the chip, analyte prothrombin fragment 1 at 1.0-6.0 µM

Kd (histone H4 (human)): 896 nM | Kd (histone H3 (human)): 2350 nM
Substance: recombinant human prothrombin fragment 1 (from UniProt P00734 44-198)
